Test results as given in article PMC10629583, “Specific inhibition of an anticancer target, polo-like kinase 1, by allosterically dismantling its mechanism of substrate recognition” (Proceedings of the National Academy of Sciences of the …, 2023).
[ ]: non-standard residue; d: D form. The star is where a group is joined. FITC = O=C1OC2(c3ccc(O)cc3Oc3cc(O)ccc32)c2ccc(NC(=S)*)cc21; pT = C[C@@H](OP(=O)(O)O)[C@H](N)C(=O)O; Ahx = NCCCCCC(=O)O

Legend:
Conditions in all cases: both partners purified
[1] = target: T1, PBD1 (residues 345–603) F559D (human, UniProt P53350 345-603, F559D); experiment: fluorescence polarisation; inhibition assay: FITC-conjugated ligand (15 nM) mixed with PBD at its EC85 concentration, competitor varied; read about 30 min after reaction, 384-well format
T1 construct: Polo-like kinase 1 (Plk1), polo-box domain, residues 345-603, F559D; also called F559D mutant protein; source: E. coli (purified as described for the crystallography construct, Rosetta strain)

[2] = target: T2, PBD1 (residues 345–603) F559R (human, UniProt P53350 345-603, F559R); experiment: as above
T2 construct: Polo-like kinase 1 (Plk1), polo-box domain, residues 345-603, F559R; also called F559R mutant; source: E. coli (purified as described for the crystallography construct, Rosetta strain)

[3] = target: T3, PBD1 (residues 345–603) F559K (human, UniProt P53350 345-603, F559K); experiment: as above
T3 construct: Polo-like kinase 1 (Plk1), polo-box domain, residues 345-603, F559K; also called F559K mutant; source: E. coli (purified as described for the crystallography construct, Rosetta strain)

[4] = target: T4, PBD1 (residues 345–603) F559E (human, UniProt P53350 345-603, F559E); experiment: as above
T4 construct: Polo-like kinase 1 (Plk1), polo-box domain, residues 345-603, F559E; also called F559E mutant; source: E. coli (purified as described for the crystallography construct, Rosetta strain)

[5] = target: T5, Plk1 polo-box domain, PBD1 (residues 345–603) WT (human, UniProt P53350 345-603); experiment: fluorescence polarisation; direct binding: FITC-Ahx-DPPLHSpTAI-NH2 with different concentrations of recombinant PBD1 WT or mutants
T5 construct: Polo-like kinase 1 (Plk1), polo-box domain, residues 345-603; TEV-PBD1 fragment in pET-Duet-1; A TEV site precedes PBD1 in the insert; also called PBD1 WT; Plk1 PBD; source: E. coli (purified as described for the crystallography construct, Rosetta strain)

Measured: binding result

T1 sequence (P53350 345-603 F559D): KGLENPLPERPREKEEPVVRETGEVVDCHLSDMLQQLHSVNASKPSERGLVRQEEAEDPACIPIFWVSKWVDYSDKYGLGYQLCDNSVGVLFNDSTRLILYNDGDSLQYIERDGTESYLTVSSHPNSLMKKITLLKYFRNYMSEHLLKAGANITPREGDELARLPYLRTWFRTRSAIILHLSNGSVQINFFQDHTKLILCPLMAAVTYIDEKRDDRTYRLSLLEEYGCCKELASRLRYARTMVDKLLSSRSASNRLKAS
T5 sequence (P53350 345-603): as the sequence (P53350 345-603 F559D) above, with D215F counted along it
T4 sequence (P53350 345-603 F559E): as the sequence (P53350 345-603 F559D) above, with D215E counted along it
T2 sequence (P53350 345-603 F559R): as the sequence (P53350 345-603 F559D) above, with D215R counted along it
T3 sequence (P53350 345-603 F559K): as the sequence (P53350 345-603 F559D) above, with D215K counted along it

B1: FITC-Ahx-DPPLHSpTAI-NH2 (peptide)
peptide: {FITC-Ahx}-DPPLHS[pT]AI-NH2
SMILES: CC[C@H](C)[C@H](NC(=O)[C@H](C)NC(=O)[C@@H](NC(=O)[C@H](CO)NC(=O)[C@H](Cc1c[nH]cn1)NC(=O)[C@H](CC(C)C)NC(=O)[C@@H]1CCCN1C(=O)[C@@H]1CCCN1C(=O)[C@H](CC(=O)O)NC(=O)CCCCCNC(=S)Nc1ccc2c(c1)C(=O)OC21c2ccc(O)cc2Oc2cc(O)ccc21)[C@@H](C)OP(=O)(O)O)C(N)=O
notes: also called FITC-conjugated phosphopeptide; FITC-conjugated ligand
binds: all assays above
